We go through one substance from patent US20020150566.

The data set has as its target HA-Ras (wild-type) (UniProt P01112).
Chain of UniProt P01112 (P01112 whole entry, looked up): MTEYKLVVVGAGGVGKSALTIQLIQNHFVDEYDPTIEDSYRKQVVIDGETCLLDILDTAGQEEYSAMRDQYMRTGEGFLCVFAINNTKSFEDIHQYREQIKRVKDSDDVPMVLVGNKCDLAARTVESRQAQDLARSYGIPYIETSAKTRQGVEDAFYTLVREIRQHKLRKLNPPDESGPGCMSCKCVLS

Consider Flag-SOS, for which the “amount of GTP-bound HA-Ras (32-PO4 labeling, a-HA immunoprecipitation, TLC)” value is on record as “expression of Flag-SOS significantly increased the amount of GTP-bound HA-Ras”.
